Our source for the Kd values is publication PMC3677924, “Biochemical and Functional Analysis of Drosophila-Sciara Chimeric Sex-Lethal Proteins”.

Common to all, as to conditions: protein: recombinant; tags: GST; label: fluorescein (RNA labelling mix)
The target in data set [1] is T1, SX35 chimera (Drosophila melanogaster / Sciara …, UniProt P19339 1-123+=R+Q86QM9:73-287, internal_change).
T1 sequence: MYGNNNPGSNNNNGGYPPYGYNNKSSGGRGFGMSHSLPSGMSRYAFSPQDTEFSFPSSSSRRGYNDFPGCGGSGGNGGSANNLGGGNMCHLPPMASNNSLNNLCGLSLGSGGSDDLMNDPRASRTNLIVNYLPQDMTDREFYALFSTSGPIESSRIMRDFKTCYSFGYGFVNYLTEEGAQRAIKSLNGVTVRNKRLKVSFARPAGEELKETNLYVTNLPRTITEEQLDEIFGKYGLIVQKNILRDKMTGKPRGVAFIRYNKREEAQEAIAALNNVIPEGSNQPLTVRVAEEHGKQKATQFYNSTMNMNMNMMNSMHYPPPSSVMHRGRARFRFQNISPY
The experiment in a line: EMSA; apparent Kd, Hill fit; error 95% CI; 20 mM Hepes pH 8.0, 0.1 M KCl, 0.5 mM EDTA, 1 mM DTT, 0.05% NP40, 20% glycerol, 3 µg yeast tRNA; 5 min on ice, then 10 min at room temperature with RNA; 5% native PAGE, 0.25x TBE. (A gel shift assay detects complexes by their altered migration in electrophoresis.)

Data set [2] concerns the target T2, SX64 chimera (Drosophila melanogaster / Sciara …, UniProt P19339 1-292+=LE+Q86QM9:241-287, internal_change).
T2 sequence: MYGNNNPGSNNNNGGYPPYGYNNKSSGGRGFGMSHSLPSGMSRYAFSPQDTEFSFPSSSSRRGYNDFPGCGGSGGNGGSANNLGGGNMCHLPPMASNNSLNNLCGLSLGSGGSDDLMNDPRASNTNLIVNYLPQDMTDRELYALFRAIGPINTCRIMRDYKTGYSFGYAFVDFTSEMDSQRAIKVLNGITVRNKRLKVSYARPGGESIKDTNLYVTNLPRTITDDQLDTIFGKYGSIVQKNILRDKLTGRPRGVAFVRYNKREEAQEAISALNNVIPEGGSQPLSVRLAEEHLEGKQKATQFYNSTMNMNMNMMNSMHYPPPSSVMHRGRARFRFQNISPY
The data set is described as above.

The target in data set [3] is T3, SX28 chimera (Drosophila melanogaster / Sciara …, UniProt Q86QM9 1-240+=LE+P19339:293-354, internal_change).
T3 sequence: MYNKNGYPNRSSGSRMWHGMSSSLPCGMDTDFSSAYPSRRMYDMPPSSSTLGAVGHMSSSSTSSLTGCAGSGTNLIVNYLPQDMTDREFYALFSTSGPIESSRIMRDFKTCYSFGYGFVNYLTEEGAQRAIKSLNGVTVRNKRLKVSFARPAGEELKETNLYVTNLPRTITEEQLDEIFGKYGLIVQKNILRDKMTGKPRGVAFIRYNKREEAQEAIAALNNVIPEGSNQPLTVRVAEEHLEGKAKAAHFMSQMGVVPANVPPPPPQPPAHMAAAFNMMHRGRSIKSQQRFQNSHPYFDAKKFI
The description is as above.

The target of data set [4] is T4, SX17 chimera (Drosophila melanogaster / Sciara …, UniProt Q86QM9 1-71+=R+P19339:125-354, internal_change).
T4 sequence: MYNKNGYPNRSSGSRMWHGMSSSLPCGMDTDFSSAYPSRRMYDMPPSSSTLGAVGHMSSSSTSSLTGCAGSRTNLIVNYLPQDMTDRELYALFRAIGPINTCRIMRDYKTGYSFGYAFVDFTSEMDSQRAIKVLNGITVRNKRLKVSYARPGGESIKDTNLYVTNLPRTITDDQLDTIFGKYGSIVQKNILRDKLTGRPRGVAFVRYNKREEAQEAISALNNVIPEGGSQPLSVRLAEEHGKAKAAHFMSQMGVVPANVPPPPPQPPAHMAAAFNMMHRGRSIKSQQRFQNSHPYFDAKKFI
The data set is described as above.

The target of data set [5] is T1, SX35 chimera. The experiment in a line: EMSA; Hill n=1; error 95% CI; 20 mM Hepes pH 8.0, 0.1 M KCl, 0.5 mM EDTA, 1 mM DTT, 0.05% NP40, 20% glycerol, 3 µg yeast tRNA; 5 min on ice, then 10 min at room temperature with RNA; 5% native PAGE, 0.25x TBE.
Data set [6] deals with T2, SX64 chimera. The description is as above.
Data set [7] deals with T3, SX28 chimera. The description is as above.
The target in data set [8] is T4, SX17 chimera. The data set is described as above.

B1: single poly(U) SXL site (ssRNA)
RNA: ACAUAUUUUUUUUCACAGC
For B1, the Kd with SX35 chimera [1] was determined as 230 ± 40 µM; with SX64 chimera [2], 180 ± 20 µM; in the data set with SX28 chimera [3], 230 ± 50 µM; with SX17 chimera [4], 350 ± 50 µM.

B2: double poly(U) SXL site (ssRNA)
RNA: CAUGAUUAUUUUUUUUUAUUUUUUUUCGGUGA
Take B2: the Kd with SX35 chimera [5] worked out at 0.9 ± 0.4 µM; with SX64 chimera [6] it was 2.3 ± 0.4 µM; with SX28 chimera [7], 3.8 ± 0.5 µM; in the data set with SX17 chimera [8] it was 2.4 ± 0.5 µM.
